{"source": "patent US5985822A", "about": "“Inhibition of glial cell proliferation with N-CAM homophilic peptides” (The Scripps Research Institute, priority 1995, dated 1999)", "molecules": {"B1": {"name": "N-CAM: neural cell adhesion molecule purified from early postnatal rat brains by affinity chromatography, mainly polysialylated embryonic form (protein, UniProt P13596 20-858, looked up)", "Neural cell adhesion molecule …": "LQVDIVPSQGEISVGESKFFLCQVAGDAKDKDISWFSPNGEKLSPNQQRISVVWNDDDSSTLTIYNANIDDAGIYKCVVTAEDGTQSEATVNVKIFQKLMFKNAPTPQEFKEGEDAVIVCDVVSSLPPTIIWKHKGRDVILKKDVRFIVLSNNYLQIRGIKKTDEGTYRCEGRILARGEINFKDIQVIVNVPPTVQARQSIVNATANLGQSVTLVCDADGFPEPTMSWTKDGEPIENEEEDDEKHIFSDDSSELTIRNVDKNDEAEYVCIAENKAGEQDASIHLKVFAKPKITYVENQTAMELEEQVTLTCEASGDPIPSITWRTSTRNISSEEKASWTRPEKQETLDGHMVVRSHARVSSLTLKSIQYTDAGEYICTASNTIGQDSQSMYLEVQYAPKLQGPVAVYTWEGNQVNITCEVFAYPSATISWFRDGQLLPSSNYSNIKIYNTPSASYLEVTPDSENDFGNYNCTAVNRIGQESLEFILVQADTPSSPSIDRVEPYSSTAQVQFDEPEATGGVPILKYKAEWKSLGEEAWHSKWYDAKEANMEGIVTIMGLKPETRYAVRLAALNGKGLGEISAATEFKTQPVREPSAPKLEGQMGEDGNSIKVNLIKQDDGGSPIRHYLVKYRALASEWKPEIRLPSGSDHVMLKSLDWNAEYEVYVVAENQQGKSKAAHFVFRTSAQPTAIPANGSPTAGLSTGAIVGILIVIFVLLLVVMDITCYFLNKCGLLMCIAVNLCGKAGPGAKGKDMEEGKAAFSKDESKEPIVEVRTEEERTPNHDGGKHTEPNETTPLTEPEKGPVETKSEPQESEAKPAPTEVKTVPNEATQTKENESKA", "modifications": "polysialylated embryonic form"}}, "key": {"[1]": {"tested_on": "tyrosine phosphorylated proteins (60-70 kDa and approximately 120 kDa)", "experiment": "Anti-phosphotyrosine immunoprecipitation and immunoblot of bFGF-stimulated astrocytes", "type": "cell-based, rat", "conditions": "N-CAM 2 μg/ml 30 minutes, then bFGF 100 ng/ml 10 minutes", "procedure": "Astrocyte cells were seeded at a density of 7×10^4 /cm^2 in a 100 mm tissue culture dish in Dulbecco's modified essential medium (DMEM) containing 10% fetal calf serum and gentamycin (5 μg/ml) at 37 degrees C with 7% CO2. After overnight culture, the medium was replaced with serum-free medium and the cells are cultured for an additional 48 hr. The serum-starved cells were treated for 30 minutes in the presence of N-CAM (2 μg/ml) or buffer alone and then stimulated for 10 minutes with bFGF (100 ng/ml) to stimulate tyrosine phosphorylation through the FGF receptor. […]\nImmunoblotting was performed by incubation with the indicated antibodies followed by ^125 I-labeled protein A; the resulting autoradiogram was exposed for 14 hr on XAR film at -70° C. or scanned on a Molecular Dynamics PhosphorImager (Sunnyvale, Calif.). The amount of reactivity with antibodies to phosphotyrosine relative to the amount of reactivity with antibodies to each specific protein can be calculated from imaging these gel blots, in extracts from N-CAM treated cells vs. non treated cells. This determines whether the FGF receptor or other proteins analyzed in this same paradigm are changed in their levels of tyrosine phosphorylation upon N-CAM treatment."}, "C6 glioma cells": {"tested_on": "C6 glioma cells", "experiment": "Proliferation of C6 glioma cells in SFM at low cell densities", "type": "cell-based", "conditions": "externally added N-CAM"}}}
{"molecule": "B1", "values": [{"measurement": "tyrosine phosphorylation of a 60-70 kDa protein and a protein at approximately 120 kDa", "setting": "[1]", "value": "diminished tyrosine phosphorylation"}, {"measurement": "rate of proliferation of C6 glioma cells", "setting": "C6 glioma cells", "value": "decrease their rate of proliferation"}]}
